This is an account of results in publication PMC7877763.

For assay [1], the target named is GPR-foldon (foldon stabilized collagen model peptide containing a (GPP)5GPR(GPP)6 collagen sequence). The assay is described as follows: BLI; biotinylated GPR-foldon immobilised on streptavidin biosensors, blocked with 10 uM biocytin; HSP47 in solution; 50 mM Tris, 150 mM NaCl, pH 7.5 (TBS); kon and koff fitted with a 1:1 Langmuir model, KD = koff/kon. (In BLI a coated tip is dipped into the sample, and binding shifts an interference pattern.)

For assay [2] the target is unchanged. The assay can be described thus: ELISA; ELISA-like binding assay; type I collagen from rat tail coated at 10 ug/mL on MaxiSorp plates (coating of GPR-foldon not described); His-tagged HSP47 at 1.2 to 5,000 nM in solution; detected with HRP-coupled anti-His antibody; four-parameter logistic fit. A general note: An ELISA detects its analyte on a solid surface through an enzyme-linked reagent.

“recombinant canine HSP47-R222S (from UniProt C7C419 36-418) (natural protein)”: the figures for the Kd in assay [1] and in assay [2] were 11.5 µM and 1500 nM, respectively.

For “recombinant wild-type canine HSP47 (from UniProt C7C419 36-418) (natural protein)”, the Kd in assay [1] is 0.409 µM; in assay [2] it was 56 nM.

In general, Kd refers to a measure of binding affinity in units of concentration. A low value points to tighter binding.
